Laboratory results as given in paper PMC10074858.

B1: Fluorescently labeled ACT-101 (Alexa Fluor 647) (ligand)
chain: RTLHRNEYGIASILDSYQCTAEISLADLATIFFAQFVQEATYKEVSKMVKDALTAIEKPTGDEQSSGCLENQLPAFLEELCHEKEILEKYGHSDCCSQSEEGRHNCFLAHKKPTPASIPLFQVPEPVTSCEAYEEDRETFMNKFIYEIARRHPFLYAPTILLWAARYDKIIPSCCKAENAVECFQTKAATVTKELRESSLLNQHACAVMKNFGTRTFQAITVTKLSQKFTKVQFTEIQKLVLDVAHVHEHCCRGDVLDCLQDGEKIMSYICSQQDTLSNKITECCKLTTLERGQCIIHAENDEKPEGLSPNLNRFLGDRDFNQFSSGEKNIFLASFVHEYSRRHPQLAVSVILRVAKGYQELLEKCFQTENPLECQDKGEEELQKYIQESQALAKRSCGLFQKLGEYYLQNAFLVAYTKKAPQLTSSELMAITRKMAATAATCCQLSEDKLLACGEGAADIIIGHLCIRHEMTPVNPGVGQCCTSSYANRRPCFSSLVVDETYVPPAFSDDKFIFHKDLCQAQGVALQTMKQEFLINLVKQKPQITEEQLEAVIADFSGLLEKCCQGQEQEVCFAEEGQKLISKTRAALGV
modifications: Alexa Fluor 647 label (protein labeling kit); sites not stated
B2: Fluorescently labeled ACT-101 (Alexa Fluor 488) (ligand)
chain: B1 chain
modifications: Alexa Fluor 488 label (microscale protein labeling kit); sites not stated

Tests used:
[1] = target: alpha-fetoprotein receptor (human (endogenous in tumor cell lines)); assay: plate-reader fluorescence of labeled protein bound to and internalized by cells; 0.5 µM F-ACT-101 (Alexa Fluor 647) with tumor cells at 37 °C for 0.5, 2 and 5 h, stopped on ice, cells washed, sonicated with DMSO, fluorescence read; background subtracted; binding/internalization as ng per million cells; n = 3
[2] = target: alpha-fetoprotein receptor (human (endogenous in tumor cell lines)); assay: flow cytometry on cells; COLO-205 or U937 cells, F-ACT-101 (Alexa Fluor 488) at 1, 3, 10, 30 and 100 µg/mL in cold PBS for 1 h on ice; percent of cells positive

Row | Binder | ng F-ACT-101 per million cells (COLO-205, 0.5 h) (ng/million cells) [1] | ng F-ACT-101 per million cells (COLO-205, 2 h) (ng/million cells) [1] | ng F-ACT-101 per million cells (COLO-205, 5 h) (ng/million cells) [1] | ng F-ACT-101 per million cells (H522, 0.5 h) (ng/million cells) [1] | ng F-ACT-101 per million cells (H522, 2 h) (ng/million cells) [1] | ng F-ACT-101 per million cells (H522, 5 h) (ng/million cells) [1] | ng F-ACT-101 per million cells (MCF-7, 0.5 h) (ng/million cells) [1] | ng F-ACT-101 per million cells (MCF-7, 2 h) (ng/million cells) [1] | ng F-ACT-101 per million cells (MCF-7, 5 h) (ng/million cells) [1] | ng F-ACT-101 per million cells (OVCAR-3, 0.5 h) (ng/million cells) [1] | ng F-ACT-101 per million cells (OVCAR-3, 2 h) (ng/million cells) [1] | ng F-ACT-101 per million cells (OVCAR-3, 5 h) (ng/million cells) [1] | ng F-ACT-101 per million cells (SKOV-3, 0.5 h) (ng/million cells) [1] | ng F-ACT-101 per million cells (SKOV-3, 2 h) (ng/million cells) [1] | ng F-ACT-101 per million cells (SKOV-3, 5 h) (ng/million cells) [1] | ng F-ACT-101 per million cells (U937, 0.5 h) (ng/million cells) [1] | ng F-ACT-101 per million cells (U937, 2 h) (ng/million cells) [1] | ng F-ACT-101 per million cells (U937, 5 h) (ng/million cells) [1] | percent of cells positive for binding (COLO-205, at 100 µg/mL) [2] [%] | percent of cells positive for binding (U937, at 100 µg/mL) [2] [%]
1 | B1 | 6.9 | 33.6 | 75 | 55.6 | 27.1 | 71.3 | 51 | 53.6 | 126 | 67 | 21.2 | 71 | 31.3 | 9.2 | 16 | 29.5 | 67.1 | 84.3 |  | 
2 | B2 |  |  |  |  |  |  |  |  |  |  |  |  |  |  |  |  |  |  | 90 | 90
